Laboratory results taken from the nanobody polyreactivity screen of Harvey et al. (2022).

Experiment: yeast display, Sf9 membrane polyspecificity reagent, FACS + sequencing; frameworks hold sequencing errors
In short: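 Nanobodies from a synthetic yeast display library (Saccharomyces cerevisiae BJ5465), induced 36–48 hours with galactose, were stained 1 hour at 4 °C with 10% biotinylated, detergent-solubilized Sf9 membrane reagent, enriched on streptavidin microbeads, then FACS-sorted. Anti-HA (expression) and streptavidin (reagent binding) fluorescence set low and high (top ~1%) gates. Polyreactivity labels come from the gate of origin. Genes were colony-PCR amplified, MiSeq 2 × 250 sequenced and filtered by CDR length.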

Row | Sequence | polyreactivity (PSR sort gate)
1 | QVQLGESGGGLVQAGGSLSLSCAASGSIFRNYAMGWYRPAPGKEWELVAAITRGGPTNYADSVKGRVTISRDHAKNTVYLQMNRQKPEDTAVYYCNAAWRLGWTHWETTRYVYWGQGTHVTVSS | high polyreactivity
2 | QVQLVESAGGLVQAGGSLRLICAASGSIFVKYAMGWYRQATGKERELVAAISRSGGSTYYADSVKGRFTISRDNAKNTVYLQMTSLKPEDTAVYYCAADGFRGDMYYWGQGTQVTVSS | low polyreactivity
3 | QVQLVESGGGLVQAGGSLRLSCAASGSIFYRYAMGWNRQAPGKEKELVAAISRSGGRTYYADSVKGRFTISRDNAMNTVYLQMNSLKPEDTAVYYCAAESTVGTDLGGYSWGQGSQVTVSS | high polyreactivity
4 | QVHLVESGGGLVQAGGSLRLSCAASGRIFTYYAMAWYRQAPGKEREMVAGITGSGASTYYADSVKGRFTISRDNAKNTVYLQMNSLKPEDTAVYYCNAPYVIRPFRGRYDYWGQGTQVTVSS | high polyreactivity
5 | QVQLVESGGGLVQAGGSLRLSCAASGSIFGRYAMGWYRQAPGKERELVAAISWRGGSTYYADSVKGRFTISRDNAKNTVYLQMNSLKPEDTAVYYCNVPYRSGYSHRYDYWGQGTQVTVSS | high polyreactivity
6 | QVHLVESGVGLVQAGGSLRLSCAASGRIFFANPIGWYRQAPGKERELVAANSRGGRTNYADSVKGRFTISRDNAKNTVYLQMNSLNPEDTAVYYCAAVRLSHAPSYYLYGMDYWGQGTQVTVSS | low polyreactivity
7 | QVQIVESGGGLVQAGGSLRLSCAASGRIFWAYAMGWYRQAPGKERELVAAITSGGSTYYADSVKGRFTISRDNAKNTVYLQMNRLKPDDTAVYYCAVGSNWVDDSPEDEYWGQGTQVTVSS | low polyreactivity
8 | QVQLVESGGGLVQAGGSLRISCAASGFIFWYYTMGRYIQAPGKERELVAAINSGGSTNYADSVKGRFTISRDNAKNTVYLQMNSLKPEDTAVYYCAALVCYSGELFYYWGQGTQVTVSS | low polyreactivity
9 | QVQLVESGGGLVQAGGTLRLSCAASGGTSRSYAMVWYRQAPGKERELVAAISWRGGRTYYADSVKGRFTISRDNAKNTVYLQMNSLKPEDTAVYYCAARQYSQETYDYWGQGSQVTVSS | high polyreactivity
10 | QVQLVESGGGLVQAGGSLRLSCAASGSIVGSNAMGWYRQAPGKERELVAAITWSDGSPYYADSVKGRFTISRDNAKNTVYLQMNRLKPEDTAVYVCATDYGYSWYDYWGQGTQVTVSS | low polyreactivity
11 | QVQLVESGGGLVQAGGSLRLSCAASGTLRYYAMGWYRQAPGKERELVAAISKSGGRTYYADSVKGRFTISRDNAKNTVYLQMNSLKPEDTAVYYCAARGWTANYEMDHWGQGTQVTVSS | high polyreactivity
12 | QVQLVESGGGLVQAGGSLRLSCAASGSIFSSNVMGWYRQAPGKERELVAAITVRGSRTYYADSVKGRFTISRDNAKNTVYLQMNSLKPEDTAVYYCNAVARVLGSDRRLQYYYWGQGTQVTVSS | high polyreactivity
13 | QVQLVESGGGLVQAGGSLRLSCAASGFTFWKYTMGWYRQAPGKERELVATISSSSGSTTYADSVKGRFTISRDNAKNTVYLQMYSLKPEDTAVYYCNVDDPFYSGVVEFDYWGQGTQVTVSS | low polyreactivity
14 | QVQLVESGGGLVQAGGSLRLSCAASGNIFRGYTMGWYRQAPGKERELVATITWNGVSTFYADSVKGRFTISRDNAKNTVYLQMNSLKPEDTAVYYCAAYYPSHDYSGFWSDTYEYWGQVTQVTVSS | low polyreactivity
15 | QVQLVESGGGLVQAGGSLRLSSPASGLIFGAYAMGWYRQERGKERELVAAISYSGGRTYYADSVKGRFTMSRDNAKNTVYLQLNSLKPEDTAVYYCNALWYLSLSYRYDYWGQGTQVTVSS | high polyreactivity
16 | QVQLVESGGGLVQAGGSLRLSCAASGFIFAYNAMGWYRQAPGKEWELVAAISWSGGSTYYADSVKGRFTISRDNAKNTVYLQMNSLKPEDTAVYYCNKYLRYPFKRYGYWGQGTQVTVSS | high polyreactivity
17 | QVQLEESGGGLVQAGGSLRLSCAASGSTFSGYAMGWYRQATGKDRELVAAITSSGGRTYYADSVKGRFTISRDKAKNTVYLQMNSLKPEDTAVYYCAALYYHEYDYWGQGTQVTVSS | low polyreactivity
18 | QVQLVESGGGLVQAGGSLRLSCAASGSTFYNYVMGWYRQAPAKERELVAAITSRGGRTYYADSVKGRFTISRDNAKNTVSLQMNSLKPEDTAVYYCARDRGYQSGYDYWGQGTQVTVSS | high polyreactivity
19 | QVQLVESVRGLDQAGGSLRLSCAASGSIFDSNAMGSYRQATGKERELVAAITGSGTSTYYADSVKGRFTISRDNAKNTVYLQMNILKPEDTAVYYCARDSLQVFYTYGSDDYWGQGTQVTVSS | low polyreactivity
20 | QVQLVESGGGLVQAGGSLRLSCAASARIFSQNAMGWYRQAPGKERELVAVISWSGVSTSYSDSVKGRFTISRDNAKNTVYLQMNSLKPEDTAVYYCAARRFYYYSRYPGYNSWGQGTLVTVSS | high polyreactivity
21 | QVQLVESGGGLVQAGGSLGLSCAASGSTLSAYVMGWYRQAPGKEREFVAAITWSGGNTYYADSVKGRFTISRDNAKHTVYLQMNSLKPEDTAVYFCARRGYRQSGDYWGQGTQVTVSS | low polyreactivity
22 | QVQLVESGGGLVHAGGSLRLSCAASGYIIGYYTMGWYRQAPGKERELVATIRSGGSTYYADSVKGRFTISRDNANNSVYLQINSLKPEDTAVYYCAKRVRRISEYGYWGQGTHVTVSS | high polyreactivity

Row | Sequence | polyreactivity (PSR sort gate)
23 | QVQLVESGGGLVQAGGSLRLSCAASGRTFYYYAMGWYRQAPGKERELVAAIRWRATSTFYADSVKGRFTISRDNAKNTVYLQMNSLKPEDTAVYYCATRGRWGYSGRSQGYSIYNYWGQGTKVTVSS | high polyreactivity
24 | QVQLVESGGGLVQAGGRLRLICAASGRIFYSYAMGWYRQAPGKERELVAAISFSVGSTYYADSVKGRFTISRDNAKNTVYLQMNSLKPEDTAVYYCAASLGFPGYEYWGQGTQVTVSS | low polyreactivity
25 | QVQLVESGGGLVQAGGSLRLSCAASGFTFSYYAMGWYRQAPGHEREFVAAIIWNGTSTYYADSVKGRFTISRDNAKNTVYLQMNSLKPEDTAVYYCAAYDVHDYDYWGQGTQVTVSS | high polyreactivity
26 | QVQLVESGGGLVQAGGSLRLSCAASGSIFPLYDMGWSRQATGKQSELVASITSGDTTNYADSVKGRFTISRDNAKNTVYLQMISLNAEDTAVYYCATDTPTDRYAAYPNDQYYYWGQGTQVTVSS | low polyreactivity
27 | QVKLVDSGGGLVQAGGSLRLSCAASGSIFGAYAMGWYRQAHGKERELVAPITLRDGSTYYADSVKGRFTISRDNAKNTVYLQLNSLKPEDTAVYYCATYYSAINYGWSKTILYDYWGQGTQVTVSS | low polyreactivity
28 | QVQLVESGGGLVQAGGSLRLSCAASGRIFGIYAMGWYRQAPGKERELVARITGGGSTNYADSVKGRFTISRDNAKNTVYLQMNSLKPEDTAVYYCAATVRRIVGNITRYDYWGQGTQVTVSS | low polyreactivity
29 | QVQLVESGGGLVQAGGSLRLSCAASGSIFITYAMGWYRQAPGKERELVAAIRDSGDRTYYADSVKGRFTISRDYAKNTVYLQMNSLKPEDTAVYYCNARWQEPLKYDYWGQGTQVTVSS | low polyreactivity
30 | QVQLVDSGGGLVQAGGSLRITCAASGFTFTRYALGGYRQAPGKERELVAVITSTAGSTYYADSVKGRFTISRDNAKNSVYLQMNSLKAEVTAVYFCAAESLVHGDVTLEEVVAQSYDYWGQGSQVTVSS | low polyreactivity
31 | QVQLVESGGGLVQAGGSLRLSCAASGSTFQGKAMGWYRQAPGKERELVATINNDGSTYYADSVKGRFTISRDNAKNTVYLQMNSLKPEDTAVYYCAADVHRVVLEYDYWGQGTQVTVSS | low polyreactivity
32 | QVQLVESGGGLVQARGSLRLICAASGSTFGVHAMGWSRQAPGKERELVAAITWRGGSTYYADSLKGRFTISRDTAKNTVYLQMNSLKPEDTAVYYCAADPRYYSYEYWGEGTQVTVSS | high polyreactivity
33 | QVHLVESGGGLVQAGGSLRLSCAASGNIFGLYAMGWYRQAPWKERELVAAISWRGGNTYYADYVKGRFTISRDNAKNTVYLQMNSLKPEDTAVYYCAAEAGYWYDYWGQGTQVTVSS | high polyreactivity
34 | QVQLVESGGGLVQAGGSLRLSCAASGNIFYANAMGWYRQAPGKERELVAGITVRGGRTYYADSVKGRFTISRDNAKNTVYLQMNSLKPEDNAVYYCAVRSRGSRYDYWGQGTQVNVSS | high polyreactivity
35 | QVQLVESGGGLVQAGGSLRLSCAASGRTFYYYTMGWYRQAPGKERELVAANTWNGGSTYYADSVKGRFTISRDNAKNTVYLQMNSLKPEDPAVYYCNARWTWRYDYWGQGTQVTVSS | high polyreactivity
36 | QVQLVESGGGLVQAGGSLRLSCAASGFTFDLYARGWYRQAPGKERELVAAISSSCGSTYYADSVKGRFTISRDNAKNTVYLQMNSLKPEDTAVYDCARRYLYSSRLVTKYGYGMDYWGQGTQVTVSS | high polyreactivity
37 | QVQLVESGGGLVQAGGSLRLSCAASGFIFTQNGMGWYRQAPGKERELVAAISWSAGGTYYADSVKGRFTISRDNAKNTVYLQMNSLKPEDTAVYYCNARVYNVFREFNSWGQGTQVTVSS | low polyreactivity
38 | QVQLVESGGGLVQAGGSLRLSCAASGFIFRHNAMVWYRQAPGKERELVAAITKRGGDTYYADSVKGRFTISRDNAKNTVYLQMISLKPEDTAVYYCNVDVRYPKYYYWGQGTQVTVSS | low polyreactivity
39 | QVQLVESGGGLVQAGGSLRLSCAASGRIFRINTMGWNRQAPGKERELVAAIRTSGSSTYADSVKGRFTISRDNAKNTVYLQMNSLKPEDTAVYYCNTKYPGRGYYWGQGTQVTVSS | high polyreactivity
40 | QVQLVESGGGIVQAGGSLRLSCAASGFIIGYNAKGWYRQAPGKETELVAAITSRGVRTYYADCVKWRFTISRDNAKNTVYLQMNSLKPEDTAVYYCAKASRGYRSPYGSIGYYYWGQGTQVTVSS | high polyreactivity
41 | QVQLVESGGGLVQAGGSLRLSCAASGRILRGYAMGWYRQAPGKERELVAAINSGGDTYYADSVKGRFTISRDNAKNTVYLQMNSLKPEDTAVYYCASDYWGWIYLYGDHLVDYRGQGTQVTVSS | low polyreactivity
42 | QVQLVESGGGLVQAGGSLRLSCAASGRTFNYNAMGWYRQAPGKERELVAAINYNGGSTYYADSVKGRFTISRDNAKNTVYVQMNSLKPEDTAVYYCAADYNEYDWGQGTQVTVSS | low polyreactivity
43 | QVQLVESGGGLVQAGGSLRLSCAASGSIFRWYAMGWYRQAPGKERELVAAITGSGGRTYYADSVKGRFTISRDNAKNTVYLQMNSLNPEDTAVYYCATRYGREDYWGQGTQVTVSS | high polyreactivity
